Experiment [1] has as its target 57CrGPDH705-FLAG, di-domain glycerol-3-phosphate dehydrogenase from Chlamydomonas reinhardtii with 30 additional N-terminal amino acids (Chlamydomonas reinhardtii). Put plainly: SEC.
Experiment [2] deals with 87CrGPDH705-FLAG, di-domain glycerol-3-phosphate dehydrogenase from Chlamydomonas reinhardtii with the chloroplast targeting sequence removed (Chlamydomonas reinhardtii). The experiment is described as follows: SEC.

Consider “57CrGPDH705-FLAG, di-domain glycerol-3-phosphate dehydrogenase from Chlamydomonas reinhardtii with 30 additional N-terminal amino acids (enzyme)”, for which the stoichiometry N in experiment [1] amounted to 5. Substance “87CrGPDH705-FLAG, di-domain glycerol-3-phosphate dehydrogenase from Chlamydomonas reinhardtii with the chloroplast targeting sequence removed (enzyme)” came in with a stoichiometry N in experiment [2] of 4.

The record behind these values is PMC12157500.
